Laboratory results from patent publication US12618828B2, “Probe and method for detecting membrane-associated molecules in living cells” (priority 2021, dated 2026).

Columns and labels:
Type in all cases: cell-based
GβGγ dimer = molecular target: T1, GβGγ dimer (Homo sapiens, UniProt P59768+P62873); test: Polarization microscopy of probe in HEK293 cells, with or without cotransfected GβGγ dimer; settings: cotransfection of plasmids encoding the, excitation polarization resolved single-photon confocal microscopy
T1 construct: expressed in transfected cells; host or cells: HEK293
T1 sequence (P62873 2-340 limits assumed): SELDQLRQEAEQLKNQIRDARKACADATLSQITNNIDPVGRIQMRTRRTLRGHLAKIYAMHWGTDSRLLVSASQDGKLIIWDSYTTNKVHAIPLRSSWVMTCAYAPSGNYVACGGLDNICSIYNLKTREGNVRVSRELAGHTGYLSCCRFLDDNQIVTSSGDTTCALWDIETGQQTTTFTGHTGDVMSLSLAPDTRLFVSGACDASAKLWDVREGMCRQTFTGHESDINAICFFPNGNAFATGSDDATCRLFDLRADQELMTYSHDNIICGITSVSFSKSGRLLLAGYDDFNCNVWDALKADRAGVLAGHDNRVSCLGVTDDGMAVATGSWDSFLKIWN
T1 sequence (P59768 2-68 limits assumed): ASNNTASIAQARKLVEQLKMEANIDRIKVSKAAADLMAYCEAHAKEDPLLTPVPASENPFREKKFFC
Description: (§1) Prior to microscopy observations, mammalian cells (HEK293) were cultured at 37° C. under an atmosphere of 95% air, 5% CO2, in Dulbecco's modified Eagle's medium with Glutamax I and high glucose (Life Technologies), supplemented with 10% fetal bovine serum. Cells were plated on 8-chamber microscopy slides (p-Slides, Ibidi GmbH, Germany). Transfections were carried out using 0.2 μg of plasmid DNA and Lipofectamine 2000 (Life Technologies), according to the protocol of the manufacturer. In cotransfections, 0.2 μg of each of the plasmids were used. Microscopy experiments were carried out 48 h after transfection. […]
(§2) In excitation polarization resolved single-photon laser scanning confocal microscopy, the cells (in the multi-well cover slip) were observed using a single-photon laser scanning confocal microscope Olympus FV1200, modified for excitation-polarization resolved microscopy. […] Fluorescence of wavelengths in the range of 510-610 nm was separated from the excitation light by a long-pass dichroic mirror (DM405/488, Olympus, Japan), diffractive grating, and an adjustable slit, and detected by a photomultiplier. […]
(§3) The resulting images were deconvolved and quantitatively analyzed by following published procedures (Bondar A & al., Communications Biology. 2021 Feb. 12; 4(1):1-2.) that rely on publicly available software tools. […]

[1] = molecular target: T2, activated form of the insulin receptor 1 (Homo sapiens, UniProt P06213); test: Polarization microscopy of probe in HEK293 cells, insulin receptor 1 activated by serum insulin; settings: cotransfection of insulin receptor 1 plasmid, activated by 5% fetal bovine serum containing natural levels of insulin, excitation polarization resolved single-photon confocal microscopy
T2 construct: His tag (named His6); expressed in transfected cells; host or cells: HEK293
T2 sequence (P06213 with tags, fused parts or gaps isoform P06213-2): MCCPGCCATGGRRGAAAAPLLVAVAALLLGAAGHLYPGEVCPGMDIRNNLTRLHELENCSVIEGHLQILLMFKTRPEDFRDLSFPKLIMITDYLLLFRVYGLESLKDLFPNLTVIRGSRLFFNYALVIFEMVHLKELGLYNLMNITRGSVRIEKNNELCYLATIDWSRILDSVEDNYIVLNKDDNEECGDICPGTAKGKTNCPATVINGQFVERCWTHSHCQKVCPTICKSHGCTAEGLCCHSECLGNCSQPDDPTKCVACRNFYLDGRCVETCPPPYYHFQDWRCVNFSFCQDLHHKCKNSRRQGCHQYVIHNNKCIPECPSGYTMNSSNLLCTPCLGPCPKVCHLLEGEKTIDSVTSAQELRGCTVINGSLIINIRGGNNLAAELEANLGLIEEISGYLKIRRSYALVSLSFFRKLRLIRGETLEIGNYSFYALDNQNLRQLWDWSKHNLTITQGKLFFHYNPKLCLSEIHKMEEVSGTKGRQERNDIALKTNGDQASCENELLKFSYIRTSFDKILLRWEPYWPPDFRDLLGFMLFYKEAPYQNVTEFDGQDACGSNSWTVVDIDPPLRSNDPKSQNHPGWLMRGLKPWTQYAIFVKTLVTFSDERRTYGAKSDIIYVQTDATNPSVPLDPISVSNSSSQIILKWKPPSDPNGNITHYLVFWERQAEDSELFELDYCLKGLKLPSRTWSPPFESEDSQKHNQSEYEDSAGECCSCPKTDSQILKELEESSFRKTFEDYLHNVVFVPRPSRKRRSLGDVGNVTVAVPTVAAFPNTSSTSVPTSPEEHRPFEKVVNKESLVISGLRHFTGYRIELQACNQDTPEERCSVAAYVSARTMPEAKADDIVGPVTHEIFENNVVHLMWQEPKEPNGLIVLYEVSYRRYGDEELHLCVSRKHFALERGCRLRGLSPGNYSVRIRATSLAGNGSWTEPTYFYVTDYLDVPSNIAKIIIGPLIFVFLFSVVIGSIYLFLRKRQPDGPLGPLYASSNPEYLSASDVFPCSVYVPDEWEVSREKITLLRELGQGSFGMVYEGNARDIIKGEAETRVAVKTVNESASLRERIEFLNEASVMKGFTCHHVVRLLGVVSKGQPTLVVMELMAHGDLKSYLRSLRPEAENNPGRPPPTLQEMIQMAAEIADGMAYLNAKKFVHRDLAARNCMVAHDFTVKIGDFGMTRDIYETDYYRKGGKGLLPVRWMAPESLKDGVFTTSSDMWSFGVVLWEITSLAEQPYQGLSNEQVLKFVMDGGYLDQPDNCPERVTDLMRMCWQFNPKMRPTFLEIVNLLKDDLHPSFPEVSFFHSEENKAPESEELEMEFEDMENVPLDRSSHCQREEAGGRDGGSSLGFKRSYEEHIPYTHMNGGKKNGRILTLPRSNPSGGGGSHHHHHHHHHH
Description: as §1, §2, §3

[2] = molecular target: T3, activated form of the G-protein Gαi1 (Gαi1(Q204L)) (Homo sapiens, UniProt P63096, Q204L); test: Polarization microscopy of probe in HEK293 cells, with or without cotransfected constitutively activated Gαi1(Q204L); settings: cotransfection of Gαi1(Q204L) plasmid
T3 construct: expressed in transfected cells; host or cells: HEK293
T3 sequence (P63096 whole entry Q204L): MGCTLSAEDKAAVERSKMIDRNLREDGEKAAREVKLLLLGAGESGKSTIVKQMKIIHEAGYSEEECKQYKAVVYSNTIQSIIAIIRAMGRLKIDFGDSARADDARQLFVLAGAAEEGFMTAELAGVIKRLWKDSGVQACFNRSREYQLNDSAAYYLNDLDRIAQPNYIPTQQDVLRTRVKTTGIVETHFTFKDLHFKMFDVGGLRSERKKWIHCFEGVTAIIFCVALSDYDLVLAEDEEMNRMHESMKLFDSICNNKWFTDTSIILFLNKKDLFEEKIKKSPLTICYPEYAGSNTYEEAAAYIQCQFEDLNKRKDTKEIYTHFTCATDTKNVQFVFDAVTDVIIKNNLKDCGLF
Text: A protein (SEQ ID NO:5) that includes as an anchoring moiety a fragment of the protein h-Ras, a flexible peptide linker (amino acid sequence GSGGSGG (SEQ ID NO:1)), a monomeric enhanced green fluorescent protein (meGFP) as a fluorescent moiety, and an affinity binding peptide KB1753 known to bind the activated form of the G-protein Gαi1 (Johnston C A & al., Structure. 2005 Jul. 1; 13(7):1069-80), was encoded into a DNA sequence (SEQ ID NO:6) and cloned into a mammalian expression vector (pcDNA3.1(+)) under the control of the cytomegalovirus (CMV) promoter. The resulting DNA encoding the probe of invention was transfected into HEK293 cells either alone, or along with DNA encoding the target protein of the probe.
Prior to microscopy observations, mammalian cells (HEK293) were cultured at 37° C. under an atmosphere of 95% air, 5% CO2, in Dulbecco's modified Eagle's medium with Glutamax I and high glucose (Life Technologies), supplemented with 10% fetal bovine serum. Cells were plated on 8-chamber microscopy slides (p-Slides, Ibidi GmbH, Germany). Transfections were carried out using 0.2 μg of plasmid DNA and Lipofectamine 2000 (Life Technologies), according to the protocol of the manufacturer. In cotransfections, 0.2 μg of each of the plasmids were used. Microscopy experiments were carried out 48 h after transfection. Microscopy observations were performed at 37° C., maintained by a heated chamber (iBidi Heating System, iBidi).
The cells were observed by excitation polarization resolved single-photon laser scanning confocal microscopy, by excitation polarization resolved two-photon laser scanning microscopy, by excitation polarization resolved single-photon wide-field fluorescence microscopy, and by fluorescence polarization resolved single-photon laser scanning confocal microscopy.
In excitation polarization resolved single-photon laser scanning confocal microscopy, the cells (in the multi-well cover slip) were observed using a single-photon laser scanning confocal microscope Olympus FV1200, modified for excitation-polarization resolved microscopy. Specifically, the excitation laser beam was passed through an electrooptical polarization modulator (RPM-2P, Innovative Bioimaging, USA) synchronized with the function of the microscope so that the direction of polarization of the laser light was alternated between horizontal and vertical direction (within the image) between acquisition of individual pixels of the image. In order to observe the probes of invention containing the green fluorescent protein (GFP), 488 nm wavelength was used for excitation. Fluorescence of wavelengths in the range of 510-610 nm was separated from the excitation light by a long-pass dichroic mirror (DM405/488, Olympus, Japan), diffractive grating, and an adjustable slit, and detected by a photomultiplier. The samples were imaged by a 40× water immersion lens (UApoN340, NA1.15. Olympus, Japan).
The resulting images were deconvolved and quantitatively analyzed by following published procedures (Bondar A & al., Communications Biology. 2021 Feb. 12; 4(1):1-2.) that rely on publicly available software tools. Briefly, an acquired image, containing in different pixels information on fluorescence intensity excited with distinct polarizations of excitation light was deconvolved into two images, each containing fluorescence intensity excited by one polarization of the excitation light. After background subtraction, an image was generated to show, in each pixel, the base 2 logarithm of the ratio between the values of the corresponding pixels of the images containing information on fluorescence intensity excited with a horizontal and vertical polarization of excitation light. The resulting image was segmented to identify parts that correspond to the cell membrane. […]

[3] = molecular target: T4, activated form of the μ-opioid receptor (Homo sapiens, UniProt P35372); test: Polarization microscopy of probe in HEK293 cells, μ-opioid receptor activated by DAMGO; settings: cotransfection of μ-opioid receptor plasmid and 10 μM DAMGO, excitation polarization resolved single-photon confocal microscopy
T4 construct: expressed in transfected cells; host or cells: HEK293
T4 sequence (P35372 whole entry): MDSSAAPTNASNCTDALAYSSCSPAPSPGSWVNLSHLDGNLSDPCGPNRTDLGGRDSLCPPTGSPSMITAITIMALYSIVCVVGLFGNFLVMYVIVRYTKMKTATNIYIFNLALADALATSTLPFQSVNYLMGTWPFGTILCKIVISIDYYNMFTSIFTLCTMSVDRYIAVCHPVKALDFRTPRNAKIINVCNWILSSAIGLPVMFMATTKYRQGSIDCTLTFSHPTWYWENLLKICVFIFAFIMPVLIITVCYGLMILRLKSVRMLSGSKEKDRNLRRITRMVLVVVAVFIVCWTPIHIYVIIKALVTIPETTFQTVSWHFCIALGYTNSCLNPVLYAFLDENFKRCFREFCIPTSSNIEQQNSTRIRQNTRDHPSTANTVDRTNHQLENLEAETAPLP
Description: as §1, §2, §3

[4] = molecular target: T5, activated form of the G-protein Gα13 (Gα13(Q226L)) (Homo sapiens, UniProt Q14344, Q226L); test: Polarization microscopy of probe in HEK293 cells, with or without cotransfected Gα13(Q226L); settings: cotransfection of Gα13(Q226L) plasmid, excitation polarization resolved single-photon confocal microscopy
T5 construct: expressed in transfected cells; host or cells: HEK293
T5 sequence (Q14344 1-377 Q226L): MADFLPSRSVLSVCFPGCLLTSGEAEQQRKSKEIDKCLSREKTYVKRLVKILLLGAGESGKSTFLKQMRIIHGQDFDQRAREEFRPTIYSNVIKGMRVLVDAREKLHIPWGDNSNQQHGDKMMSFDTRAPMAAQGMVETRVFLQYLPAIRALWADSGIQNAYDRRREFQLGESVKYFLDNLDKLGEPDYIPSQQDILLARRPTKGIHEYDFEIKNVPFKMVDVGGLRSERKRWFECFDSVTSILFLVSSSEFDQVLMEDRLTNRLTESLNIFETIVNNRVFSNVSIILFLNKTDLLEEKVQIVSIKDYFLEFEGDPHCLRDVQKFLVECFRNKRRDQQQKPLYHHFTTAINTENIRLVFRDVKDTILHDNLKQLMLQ
Description: as §1, §2, §3

[5] = molecular target: T6, activated form of the small GTPase Rac1 (Rac1(Q61L)) (Homo sapiens, UniProt P63000, Q61L); test: Polarization microscopy of probe in HEK293 cells, with or without cotransfected Rac1(Q61L); settings: cotransfection of Rac1(Q61L) plasmid, excitation polarization resolved single-photon confocal microscopy
T6 construct: expressed in transfected cells; host or cells: HEK293
Description: as §1, §2, §3

activated form of Gαi1 = molecular target: T7, activated form of Gαi1 (Homo sapiens, UniProt P63096); test: Polarization microscopy of probe in HEK293 cells, Gαi1 activated through the α2-adrenergic receptor by norepinephrine; settings: HEK293 cells cotransfected with Gαi1, Gβ1, Gγ2 and α2-adrenergic receptor; 10 μM norepinephrine; excitation polarization resolved single-photon confocal microscopy
T7 construct: expressed in transfected cells; host or cells: HEK293
T7 sequence (P63096 whole entry): as the sequence (P63096 whole entry Q204L) above, with L204Q counted along it
Description: as §1, §2, §3

[6] = molecular target: T8, activated form of the β2-adrenergic receptor (Homo sapiens, UniProt P07550, E27Q/G16R); test: Polarization microscopy of probe in HEK293 cells, β2-adrenergic receptor activated by norepinephrine; settings: cotransfection of β2-adrenergic receptor plasmid and 10 μM norepinephrine, excitation polarization resolved single-photon confocal microscopy
T8 construct: expressed in transfected cells; host or cells: HEK293
Description: as §1, §2, §3

[7] = molecular target: T9, activated form of the small GTPase RhoA (RhoA(Q63L)) (Homo sapiens, UniProt P61586, Q63L); test: Polarization microscopy of probe in HEK293 cells, with or without cotransfected RhoA(Q63L); settings: cotransfection of RhoA(Q63L) plasmid, excitation polarization resolved single-photon confocal microscopy
T9 construct: expressed in transfected cells; host or cells: HEK293
T9 sequence (P61586 whole entry Q63L): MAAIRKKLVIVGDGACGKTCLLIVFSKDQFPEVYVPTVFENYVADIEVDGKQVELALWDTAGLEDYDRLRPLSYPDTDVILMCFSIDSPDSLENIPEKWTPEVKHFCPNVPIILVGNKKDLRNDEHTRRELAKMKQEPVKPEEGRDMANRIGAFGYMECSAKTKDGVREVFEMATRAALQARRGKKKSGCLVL
Description: as §1, §2, §3

[8] = tested on: activated form of the β2-adrenergic receptor; test: Polarization microscopy of probe in HEK293 cells, β2-adrenergic receptor activated by norepinephrine; settings: β2-adrenergic receptor is the probe's anchoring moiety, 10 uM norepinephrine, excitation polarization resolved single-photon confocal microscopy
Description: as §1, §2, §3

[9] = excitation polarization resolved single-photon laser scanning confocal microscopy

GAP43-SSGSSGTG-meGFP-GRK2ct [Example 17]
linear dichroism of the fluorescent moiety of the probe in presence of its target molecule compared with absence (GβGγ dimer): statistically significantly lower

GAP43-SSGSSGTG-meGFP-IRS1 [Example 22]
linear dichroism of the fluorescent moiety of the probe in presence of its target molecule compared with absence [1]: statistically significantly lower

GAP43-SSGSSGTG-meGFP-KB1753 [Example 4]
linear dichroism of the fluorescent moiety of the probe in presence of its target molecule compared with absence [2, 9]: statistically significantly higher

GAP43-SSGSSGTG-meGFP-NB33 [Example 16]
linear dichroism of the fluorescent moiety of the probe in presence of its target molecule compared with absence [3]: statistically significantly lower

GAP43-SSGSSGTG-meGFP-PRGrh [Example 19]
linear dichroism of the fluorescent moiety of the probe in presence of its target molecule compared with absence [4]: statistically significantly lower

GAP43-SSGSSGTG-meGFP-Δ6-PAK1 [Example 21]
linear dichroism of the fluorescent moiety of the probe in presence of its target molecule compared with absence [5]: statistically significantly lower

IL4R-SSGSSGTG-meGFP-KB1753 [Example 5]
linear dichroism of the fluorescent moiety of the probe in presence of its target molecule compared with absence [2, 9]: statistically significantly higher

KB1753-cpmTurquoise2-GSGGSGG-hRas [Example 9]
linear dichroism of the fluorescent moiety of the probe in presence of its target molecule compared with absence [2, 9]: statistically significantly higher

KB1753-meGFP-GS24-hRas [Example 6]
linear dichroism of the fluorescent moiety of the probe in presence of its target molecule compared with absence [2, 9]: statistically significantly higher

KB1753-meGFP-GSGGSGG-hRas [Example 1]
linear dichroism of the fluorescent moiety of the probe in presence of activated Gαi1 compared with absence (activated form of Gαi1): statistically significantly higher | linear dichroism of the fluorescent moiety of the probe in presence of its target molecule compared with absence ([2]; excitation polarization resolved single-photon confocal, two-photon and wide-field microscopy, FIG. 2A): statistically significantly higher | fluorescence polarization of the fluorescent moiety of the probe in presence of its target molecule compared with absence ([2]; fluorescence polarization resolved single-photon laser scanning confocal microscopy, FIG. 2A): statistically significantly higher

KB1753-meGFP-GSGGSGG-kRas [Example 3]
linear dichroism of the fluorescent moiety of the probe in presence of its target molecule compared with absence [2, 9]: statistically significantly higher

NB33-meGFP-GSGGSGG-hRas [Example 15]
linear dichroism of the fluorescent moiety of the probe in presence of its target molecule compared with absence [3]: statistically significantly lower

NB80-meGFP-GSGGSGG-hRas [Example 13]
linear dichroism of the fluorescent moiety of the probe in presence of its target molecule compared with absence [6]: statistically significantly lower

rhotekin-meGFP-GSGGSGG-hRas [Example 20]
linear dichroism of the fluorescent moiety of the probe in presence of its target molecule compared with absence [7]: statistically significantly higher

β2AR-SSGSSGTG-meGFP-NB80 [Example 14]
linear dichroism of the fluorescent moiety of the probe in presence of its target molecule compared with absence [8]: statistically significantly higher
